Assay results: US20230364254A1, “METHODS FOR TREATING CANCERS WITH ANTIBODY DRUG CONJUGATES (ADC) THAT BIND TO 191P4D12 PROTEINS” (priority 2020, published 2023)

System: patients with locally advanced or metastatic urothelial cancer
Assay: Same phase 2 study: safety (adverse events, NCI CTCAE v4.03)
Assay type: in vivo, human
Excerpt: Safety assessments will be based on the information collected through the safety surveillance process and will include the data from recorded adverse events (AEs) including SAEs, recording of concomitant medication, physical examination findings, cardiac monitoring, and laboratory tests.
The assessment of safety during the course of this study will consist of the surveillance and recording of AEs including SAEs, recording of concomitant medication, and measurements of protocol-specified physical examination findings, cardiac monitoring, and laboratory tests.
AE severity should be graded using the National Cancer Institute's Common Terminology Criteria for Adverse Events (NCI CTCAE), Version 4.03. These criteria are provided in the study manual.
An overview of AEs will provide a tabulation of the incidence of all AEs, treatment-emergent AEs, treatment-related AEs, Grade 3 and higher AEs. SAEs, treatment-related SAEs, deaths, and AEs leading to study treatment discontinuation. Adverse events will be defined as treatment emergent if they are newly occurring or worsened following study treatment.
AEs will be classified by system organ class and preferred tem using the Medical Dictionary for Regulatory Activities (MedDRA) and graded using NCI CTCAE, Version 4.03.
The incidence of AEs will be summarized by system organ class, preferred term, severity and relationship to study drug. In the event of multiple occurrences of the same AE in one patient, the AE will be counted once as the occurrence for the maximum grade. AEs leading to premature discontinuation of study drug will be summarized and listed in the same manner.

[1] = Cohort 2 (N = 89), additional 3 months follow-up
[2] = Cohort 2 (N = 89), count (percent)
[3] = Cohort 2, additional 3 months follow-up

## enfortumab vedotin: Nectin-4 directed ADC: fully human anti-nectin-4 IgG1 kappa antibody (AGS-22C3) conjugated to MMAE via protease-cleavable maleimidocaproyl valine-citrulline linker
[1]
  TRAEs, Any Grade: Neutropenia: 11 (12) n (%)
  TRAEs, Any Grade: Overall: 86 (97) n (%)
  TRAEs, Any Grade: Peripheral sensory neuropathy: 44 (49) n (%)
  TRAEs, Any Grade: Pruritus: 27 (30) n (%)
  TRAEs, Any Grade: Rash maculo-papular: 27 (30) n (%)
  TRAEs, Any Grade: nnn Weight decreased: 23 (26) n (%)
  TRAEs, ≥Grade 3: Anemia: 5 (6) n (%)
  TRAEs, ≥Grade 3: Decreased appetite: 5 (6) n (%)
  TRAEs, ≥Grade 3: Diarrhea: 5 (6) n (%)
  TRAEs, ≥Grade 3: Fatigue: 6 (7) n (%)
  TRAEs, ≥Grade 3: Hyperglycemia: 5 (6) n (%)
  TRAEs, ≥Grade 3: Lipase increased: 5 (6) n (%)
  TRAEs, ≥Grade 3: Nausea: 1 (1) n (%)
  TRAEs, ≥Grade 3: Neutropenia: 8 (9) n (%)
  TRAEs, ≥Grade 3: Overall: 49 (55) n (%)
  TRAEs, ≥Grade 3: Peripheral sensory neuropathy: 3 (3) n (%)
  TRAEs, ≥Grade 3: Pruritus: 3 (3) n (%)
  TRAEs, ≥Grade 3: Rash maculo-papular: 7 (8) n (%)
  TRAEs, ≥Grade 3: nnn Weight decreased: 1 (1) n (%)
[2]
  TEAEs leading to death (excluding disease progression): Acute kidney injury: 2 (2.2)
  TEAEs leading to death (excluding disease progression): Metabolic acidosis: 1 (1.1)
  TEAEs leading to death (excluding disease progression): Multiple organ dysfunction syndrome: 1 (1.1)
  TEAEs leading to death (excluding disease progression): Overall: 5 (5.6)
  TEAEs leading to death (excluding disease progression): Sepsis: 1 (1.1)
Cohort 2, Subject 10007-0180, death on study day 15
  Primary Cause of Death, treatment-related death: Metabolic acidosis
Cohort 2, Subject 10013-0190, death on study day 28
  Primary Cause of Death, treatment-related death: Acute kidney injury
Cohort 2, Subject 10030-0197, death on study day 25
  Primary Cause of Death, treatment-related death: Multiple organ
Cohort 2, Subject 82004-0178, death on study day 203
  Primary Cause of Death, treatment-related death: Pneumonitis
[3]
  Treatment-related TEAEs of interest: hyperglycemia, all grade: 10%
  Treatment-related TEAEs of interest: hyperglycemia, ≥G3: 6%
  Treatment-related TEAEs of interest: peripheral neuropathy, all grade: 56%
  Treatment-related TEAEs of interest: peripheral neuropathy, ≥G3: 8%
  Treatment-related TEAEs of interest: rash, all grade: 61%
  Treatment-related TEAEs of interest: rash, ≥G3: 17%
  patients who discontinued treatment due to grade 3 dermatitis bullous: one
  skin reactions: grade 4 events: 1
  skin reactions: grade 5 events: no grade 5 events
  treatment-related TEAEs (all-grade): alopecia: 51%
  treatment-related TEAEs (all-grade): fatigue: 34%
  treatment-related TEAEs (all-grade): peripheral sensory neuropathy: 49%
Cohort 2, irrespective of grade, additional 3 months follow-up
  patients with severe cutaneous adverse reactions: 13
Cohort 2, patients with preexisting hyperglycemia
  rate of hyperglycemia: 20%
Cohort 2, patients with preexisting peripheral neuropathy
  rate of peripheral neuropathy: 60%
Cohort 2, patients without preexisting hyperglycemia
  rate of hyperglycemia: 7%
Cohort 2, patients without preexisting peripheral neuropathy
  rate of peripheral neuropathy: 55%
Cohort 2, stomatitis, skin exfoliation, dermatitis bullous, dermatitis exfoliative generalized
  patients with severe cutaneous adverse reactions who had grade 3 events: 4
Cohort 2, three-month follow-up
  additional treatment-related deaths in the updated analysis: No additional treatment-related deaths
Total (N = 214)
  AE of special interest, All Grade: Hyperglycemia: 36 (16.8) N (%)
  AE of special interest, All Grade: IRR: 14 (6.5) N (%)
  AE of special interest, All Grade: Ocular Events, Blurred Vision: 30 (14.0) N (%)
  AE of special interest, All Grade: Ocular Events, Corneal Disorders: 23 (10.7) N (%)
  AE of special interest, All Grade: Ocular Events, Dry Eye Disorders: 78 (36.4) N (%)
  AE of special interest, All Grade: Peripheral Neuropathy: 122 (57.0) N (%)
  AE of special interest, All Grade: Rash: 126 (58.9) N (%)
  AE of special interest, ≥Gr 3: Hyperglycemia: 18 (8.4) N (%)
  AE of special interest, ≥Gr 3: IRR: 2 (0.9) N (%)
  AE of special interest, ≥Gr 3: Peripheral Neuropathy: 12 (5.6) N (%)
  AE of special interest, ≥Gr 3: Rash: 30 (14.0) N (%)
  Any TEAEs: 214 (100.0) n (%)
  Any TEAEs leading to death: 15 (7.0) n (%)
  Any TEAEs leading to treatment discontinuation: 38 (18.2) n (%)
  Any grade 3-5 TEAEs: 155 (72.4) n (%)
  Any serious TEAEs: 94 (43.9) n (%)
  SAEs (All): Acute kidney injury: 13 (6.1) n (%)
  SAEs (All): Cellulitis: 6 (2.8) n (%)
  SAEs (All): Diarrhoea: 6 (2.8) n (%)
  SAEs (All): Febrile neutropenia: 6 (2.8) n (%)
  SAEs (All): Nausea: 5 (2.3) n (%)
  SAEs (All): Overall: 94 (43.9) n (%)
  SAEs (All): Pneumonia: 6 (2.8) n (%)
  SAEs (All): Sepsis: 8 (3.7) n (%)
  SAEs (All): Urinary tract infection: 9 (4.2) n (%)
  SAEs (Related): Acute kidney injury: 4 (1.9) n (%)
  SAEs (Related): Cellulitis: 2 (0.9) n (%)
  SAEs (Related): Diarrhoea: 3 (1.4) n (%)
  SAEs (Related): Febrile neutropenia: 6 (2.8) n (%)
  SAEs (Related): Nausea: 4 (1.9) n (%)
  SAEs (Related): Overall: 39 (18.2) n (%)
  SAEs (Related): Pneumonia: 1 (0.5) n (%)
  Treatment-related AE leading to discontinuation: Acute kidney injury: 2 (0.9) n (%)
  Treatment-related AE leading to discontinuation: Asthenia: 1 (0.5) n (%)
  Treatment-related AE leading to discontinuation: Dermatitis bullous: 1 (0.5) n (%)
  Treatment-related AE leading to discontinuation: Drug eruption: 1 (0.5) n (%)
  Treatment-related AE leading to discontinuation: Enterocolitis: 1 (0.5) n (%)
  Treatment-related AE leading to discontinuation: Fatigue: 1 (0.5) n (%)
  Treatment-related AE leading to discontinuation: Hyperglycaemia: 1 (0.5) n (%)
  Treatment-related AE leading to discontinuation: Interstitial lung disease: 1 (0.5) n (%)
  Treatment-related AE leading to discontinuation: Lipase increased: 2 (0.9) n (%)
  Treatment-related AE leading to discontinuation: Metabolic acidosis: 1 (0.5) n (%)
